Substrate in the series: CCn1c(=NN=c2sc3cc(S(=O)(=O)O)ccc3n2CC)sc2cc(S(=O)(=O)O)ccc21
The series is described as follows: purified protein. The series is classed as biochemical, Trametes sanguinea. Particulars: 100 mM sodium succinate pH 4, room temperature (routine assay conditions).

B1: Recombinant Lcc (TaLcc3 laccase) (Trametes sanguinea) (protein)
chain: AIGPKADLVISDAVVNPDGTPRDAVVVNGAFPGPLISGKKGDHFQLNVINKLTNHTMLKTTSIHWHGLFQEHTNWADGPAFVNQCPIASGHSFLYDFHVPDQAGTYWYHSHLSTQYCDGLRGPLVVYDPHDPQAHLYDVDNDDTVITLADWYHVAAKVGPQFPRGADSTLINGRGRAASDSTAELTVITVEHGKRYRFRLVSISCDPNHTFSIDGHNMTIIEVEGVNSKPLTVDSIQIFAAQRYSFMLNANQPVDNYWIRANPSGGTVGFEGGINSAILRYKGAPDAEPTNTTAPTSVIPLVETNLHPLKPMQVPGRSGIGNVDYAKTLNFNFNGTNFFINNATFTPPTVPVLLQILSGAHSAQDLLPPGSVYTLPPHSAIEITMPATTMAPGSPHPFHLHGHVFAVVRSAGSTEYNYHDPIFRDVVSTGQPGDSVTIRFMTDNPGPWFLHCHIDFHLEAGFAIVFAEDVNEIKYANPVPPSWAELCPIYDKLPESDH
notes: full cDNA with native signal peptide (predicted cleaved between residues 20 and 21), no tag mentioned; secreted by Trichoderma atroviride IMI206040 strain Talcc3; purified; ORF 1557 bp, 519 amino acids
On to B1, for which the Km is 48.10 ± 4.9 µM, the kcat is 69.7 ± 3.47 s⁻¹ and the kcat/Km is 1.44e+06 M⁻¹ s⁻¹.

Usually Km stands for the concentration of substrate that gives half-maximal velocity. One may read the kcat as the number of substrate molecules converted per active site and unit of time at saturation. The term kcat/Km denotes the turnover number divided by the Michaelis constant.

For the origin of these results see publication PMC4743974, “Xenobiotic Compounds Degradation by Heterologous Expression of a Trametes sanguineus Laccase in Trichoderma atroviride” (PLoS ONE, 2016).
